According to the nanobody polyreactivity screen of Harvey et al. (2022):

Assay: yeast display, Sf9 membrane polyspecificity reagent, FACS + sequencing; frameworks hold sequencing errors
Outline: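 Synthetic nanobody libraries on Saccharomyces cerevisiae BJ5465 were galactose-induced for 36–48 hours, stained 1 hour at 4 °C with 10% biotinylated, detergent-solubilized Sf9 membrane reagent and enriched on streptavidin microbeads. FACS then separated cells into low and high (top ~1%) gates by anti-HA (expression) and streptavidin (reagent binding) fluorescence. Genes were colony-PCR amplified, MiSeq 2 × 250 sequenced and CDR-length filtered. A clone's polyreactivity label is that of its gate of origin.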

Sequence | polyreactivity (PSR sort gate)
QVHLVESGGGLVQAGGSLRLSCAASGSIFRIYAMGWYRQAPGKERELVAAINAGGGRTYYADSVKGRFTISRDNAKNTVYLQMNSLKPEDNAVYFCAARHTEYRQESLYYWGQGTQVTVSS | low polyreactivity
QVQLVESGGGLVQAGGSLRLSCAASGSIFGDYAMGWYRQAPGKEREFVAGITRRGGRTYYADSVKGRFTISRDNAKNTVYLQMHSLKPEDTAVYYCNAVYSSSLRSKYDYWGQGTQVTVSS | high polyreactivity
QVQLVESGGGLVQAGGSLRLSCAASGIIIDYYTMGWYRQAPGKERELVAAINKSGGSTYADSVKGRFTISRDNAKNTVYLQMKSLKPEDTAVYYCAAEVDYSDWPEYARKYYYWGQGTQVTVSS | low polyreactivity
QVQLVESGGGLVQAGGSLRLSCAASGSIFYRNAMGWYRQATGKERELVAAISASGGSTYYADSVKGRFTISRDNAKNTVYLQINSLKPEDTAVYYCAVEYRKSRSYYPYYYWGQGTQVTVSS | high polyreactivity
QVQLVESGGGLVQAGGSLRLSCAASGIIFSYYDMGWYRQAPGKERELVATITGNGGSTYYADSVKGRFTISRDNAKNTVYLQMNSLKPEDTAVYYCAAQTTVYIYDYWGQGTQVTVSS | low polyreactivity
QVQLVESGGGLVQAGGSLRLSCAASGITFTYYAMGWYRQAPGKERELVAAITSGGDTYYADSVKGRFTISRDNAKNTVYLQMNSLKPEDTAVYYCAAEAVVVTKYSYWTYGLYDYWGQGTQVTVSS | high polyreactivity
QVQLVESGGGLVQAGGSLRLSCAASGFIFYPYAMGWYRQAPGKERELVAVITSGGRTYYADSVKGRFTISRDNAKNTVYLQMNSLKPEDTAVYYCAARYGSIHWKANWPEYGYWGQGTQVTVSS | low polyreactivity
QVQLVESGGGLVQAGGSLRLSCAASGIIFAYNTMGWYRQAPGKARELVAAITYRGGRTYYADSVKGRFRISRDNAKNTFYLQMNSLKPEDTAVYYCAAGRGVYSYGYNYWGHGTQVTVSS | high polyreactivity
QVQLVESGGGLVQAGGSLRLSCAASGRTFYVYDMGWYRQAPGKERELVAAISTNYADSVKGRFTISRDNAKNTVYLQMNSLNPEDTAVYYCAADDIHYVIHAYYSSGVDYWGQGTQVTVSS | low polyreactivity
QVHVVESGGGLVQAGVSLLLSCAASGRTFYRNAMGWYRQAPGKERELVAAISSRGGSTYYADSVKGRFTISRDNAKNTVYLQMNSLKPEDTAVYYCAANYGYGGDYDYWVQGTQVTVSS | high polyreactivity
QVQLVESGGGLVQAGGSLRLSCAASGSIFDGNAMGWYRQAPGKERELVAAITQSGCSTYYADSVKGRFTISRDNAKNTVYFQMNSLKPEDNAVYYCAADVPGVYPYDYWGQGTQVTVSS | low polyreactivity
QVQLVESGGGLVQAGGSLRLSCAASGRIFHWYVMGWYRQAPGKERELVAAISWSSGSTYADSVKGRFTISRDNAKNTVYLQMNSLKPEDTAVYYCNAKTYYPPFGYWGQGTQVTVSS | low polyreactivity
QVQRVESGGGLVQAGGSLRLSCAASGRTFAPNAMGWYRQAPGKERELVAAITRRTGSTYYADSVKGRFTISRDNAKNTVYLQMNSLKPEDTAVYYCNGRRRTWYGFYYWGQGTQVTVSS | high polyreactivity
QVQLVESGGGLVQAGGSLRLSCAASGRIFRRYAMGWYRQAPGKEREFVAAITKSGGSTYYADSVKGRFTISRDNAKNTVYLQMNSLKPEDTAVYDCNAYVIRALGYGGYDYWGQGTQVTVSS | high polyreactivity
QVQLVDSGGGLVQAGGSLRLSCAASGSTYSPNAMGWNRQAPGKERELVAAITGGGSTTYADSVQGRFTISRDNATNTVYLQMNSLKPEETAVYYCNTDGPRYARPFDSWGQGTQVTVSS | low polyreactivity
QVQLVESVGGLVQAGGSLRLSCAASGSTIDGYAMGCYIQAPGKEREFVAAISFSSASTYYADSVKGRFTISRDNAKNTVYLQMNSLKPEDTAVYYCNADFFDSGGSIEDDSWGQGTQVTVSS | low polyreactivity
QVQLVESGGGLVQAGGSLRLSCAASGSTFYGYTMGWYRQAPGKERELVAAITSGDSTYYADSVKGRFTISRDNAKNTVYLQINSLKPEDTAVYYCATDWDVEYYWTEYYYWGQGTQVTVSS | high polyreactivity
QVQLVESGGGLVQAGASLRLSCAASGRIFSRNTMGWSRQAPGKECEFVAAISQSGGRTYYADSVKGRFTISRDNAKNTVYLQMNSLKPEDTAVYYCNAQFARSSGFNYWGQGTQVTVSS | high polyreactivity
QVQLGESGGGLVQAGGSLRLSCAPSGNPFTIYAMGWYRPAPGKERELVASSTGRGGSTYYADSVKGRFTISRDNEKNTVYLQMNSLKPEDTAVDYCNADYNSYLYRPPTTRDYWGQGTQVTVSS | low polyreactivity
QVQLVESGGGLVQAGGSLRLSCAASGSTIDTYAMGWYRLAPGKERELVAGISWSGGSTFYADSVKGRFTFSRDNAKNTVDLHMNSLKPEDTAVYYCAKQLWVGVKYDYWGQGTQVTVSS | low polyreactivity
QVQLVESGGGLVQAGGSLRLSCAPSGRIFTHNVRGWYRQAPGKERELVAAISASGGSTYYADSVKGRFTISRDNAKNTVYLQMNSLKPEDTAVYYCNAEWAVRYPGYDYWGQGTQVTVSS | low polyreactivity
QVQLHGSGGGLVQAGCSLRVSCAASGYIFQNVPMGWTRQAPGKERELVAGIDNGTSTNYADSVNGRFTISRDNAKNTVYMQMNSLKPEDTAVYYCAAAGQADDTLGYWGQGTQVTVSS | low polyreactivity

Sequence | polyreactivity (PSR sort gate)
QVQLVESGGGLVQAGGSLRLSCAASGSIFVDYTMGWYLQAPGKERELVARITSGGSTYYADSVKGLFTISRDNAKNTVYLQMIRLNPEDTAVYYCAARPYYRYRNSWREQYYYWGQGTQVSVSS | high polyreactivity
QVQLVELGGGLVQAGGSLRLSCAASGLTLYYYAMGWYRQEPGKERELVAAINRGGSTYYADSVKGRFTISRDNAKNTVYLQMNSLKPEATAVYYCAVDYGVRDLTYYYWGQGTQVTVSS | low polyreactivity
QVQLVESGGGLVQAGGSLRLSCAASGFIFDFYTMGWYRQAPGKERELVAAITNAGSTYYADSVKGRFTISRDNAMNTFYLHMNSLKPEDTAVYYCAAYYRSRHHGYDSWGQGTQVTVSS | low polyreactivity
QVQLVESGGGLVQAGGSLRLRCASSGSIFYWYAMGWYRQAPGKERELVAAISRSGGSTYYADSVKGRFTISRDNAKNTVYLQMNSLKPEDTAVYYCATELSYRHGYWGQGTQVTVSS | high polyreactivity
QVQLVESGGGLVQAGGSLRLSCAASGSIFLSYDMGWYRQAPGKERELVAAITQSGGSTYYADSVKGRFTISRDNAKNTVYLQMNSLKPEDTAVYYCAKEGDSGYWFDYWGQGTQVTVSS | low polyreactivity
QVQLVESGGGLVQAGGSLRLSSAASGSIFRWNAMGWYRQAPGKERELVAVITWRGGRTYYADSVKGRFTISRDNAKNTVYLQMNSLKPEDTAVYYCGKGRLVTTLFGHYATFEYDSWGQGTQVTVSS | high polyreactivity
QVQLVESGGGLVQAGGSLRLSCAASGRTFEGNAMGWYRQAPGKERELVAAITSGGRTNYADSVKGRFTISRDNAKNTVYLQMNSLKPEDTAVYYCAVETRDRSTYFPGQAYDYWGQGTQVTVSS | low polyreactivity
QVQLVESGGGLVQAGGSLRLSCAASGFIFGFNAMGWYRQAPGKERELVAVISARGGRTYYADSVKGRFTISRDNAKNTVYLQMNSLKPEDTAVYYCAADDFFRYFFTHWVGDDYWGQGTQVTVSS | low polyreactivity
QVQLVESGGGLVQAGGSLRLSCAASGRTFWVYAMGWYRQAPGKERELVAAIRRGGITNYADSVKGRFTISRDNAKNTVYLQMNSLKPEDTAVYYCAALGLWFLQFDYWGQGTQVTVSS | low polyreactivity
QVQLVESGGGLVQAGGSLRLSCDASGRIFYANAMGWYRQAPGKERELVAGISSGGITNYADSVKGRFTISRDNAKNTVYLQMNSLKPEDTAVYYCAARRWSTGGYGQFDYWGQGTQVTVSS | low polyreactivity
QVQLVESGGGLVQAGGSLRLSCSSSGLIFRRNAMGWYRQAPGKERELVAVIDRGGRTNYADSVKGRFTISRDNAKNTVYLQMNSLKPEDTAVYYCDKRYASTSGYWGQGTQVTVSS | high polyreactivity
QVQLVESGGGLVQAGGSLRLSCAASGFIFDVYAMGWYRQAPGKERELVAAITSGDGTNYADSVKGRFTISRDNAKNTVYLQMNSLKPEDTAVYYCAADYGVTYRGIIFSYWGQGTQVTVSS | low polyreactivity
QVQLVESGGGLVQAGGSLRLICAASGTIFSDNEMGRYRQAPGKEREFVADISSDGSTYYADSVKGRFTISRDNAKNTVYLQMNSLKPEDTAVYYCDADPIFSLYYHYGHFDYWGQGTQVTVSS | low polyreactivity
QVHLVESGGGLVQAGGSLRLSCAASGIIFYLYAMGRYRQAPGKERELVAGITSGGDTKYADSVKGRFTISRDNAKNTVYLQMNSLKPEDTAVYYCATDSGSVWQRWGYANYDYWGQGTQVTVSS | low polyreactivity
QVQLVESGGGLVQAGGSLSLSCAASGLIFYIYAMGWYRQAPGKEMELVAAITESGGSTYYADSVKGRFTISRDNAKNTVYLQMNSLKPEDTAVYYCAKDFHNYPSFGEDYWGQGTQVTVSS | low polyreactivity
QVQLVESGGGLVQAGCSLRLSCDASGSIFPGNAMGWYRQAPGKEREFVAAISWSGGSTNYADSVKGRFTISRDNAKNTVYLQMNSLKPEDTAVYFCAKRFVRRDPTTQLYGKAYEYWGQGTQVTVSS | high polyreactivity
QVQLVESGGGLVQAGGSLRLSCAASGSTFGRYAMGWYREAPGKERELVAGITYGSTYYADSVKGRVTISRDNAKNTVYLPMNSLKPEDTAVYACAADLSYTSVHGYRSETLMDYWGQGTQVTVSS | low polyreactivity
QVQLVESGGGLVQAGGSLRLSCAASGRTFAVNVMGWYIPAPGKERELVAAIDFDDGITYYADSVKGRFTISRDNAKNTVYLQMNSLKPEDTAVYYCAAEFVYFGSDYYYWGQGTQVTVSS | high polyreactivity
QVQLVETGGGLVQAGGSLRLSCAASARIFLGYTMGWYRKAPGKEMELVASITWSGGSTYYADSVKGRFTISRDNAKNTVYLQMNRLKPDVTAVYYCNAVYWVARGRYDYWGQGTQVTVSS | high polyreactivity
QDQLVESGGGLVQAGGSLRLSCAASGRTFGDKALGWYRQAPGKERELVAAISWSGGRTYYADSVKGRFTISRDYGKNTVYLQMNSLKPEDTAVYYCAARNNRYPLYNYWGQGTQVTVSS | low polyreactivity
QVQLVESGGGLVQAGGSLRLSCAASGSTFVRYAKGWYRQAPGKETELVAAISYRGGSTYYADSVKGRFTISRDNAKNTVYLQMNSLKPEDTAVYYCAAESRHVEGEYWGQGTQVTVSS | high polyreactivity
